Experimental data as given in the supplement of paper PMC10201428.
± gives the standard deviation of the averaged measurements.

B1: library; a variant is named by its letters at N, in order (parent)
chain: AATGTTGTTGATGCAACCATAAAGTGATATTTAATAATTATTTATAATCAGCAACTTAACCACAAAACAACCATATATTGATATNTCACAAAACAACCATAANTTGATATTTTTGTGAATCGAGTATTTCAGCAAAACTACTGCAGTAAGAA

What was measured:
[1] = variants of: B1; experiment: relative integration efficiency (T-LR orientation) vs wild-type transposon end (log2 (normalized fold change)); transposon end mutated: left end; higher = more efficient transposition; settings: with VchCAST RNA-guided transposition machinery (E. coli BL21(DE3) host, lacZ target)
How it was run: (§1)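 Co-transformation of E. coli BL21(DE3) combined a pUC57 mini-transposon donor, holding barcoded pools of 1549 left-end or 1849 right-end variants, with a T7-driven plasmid encoding a CRISPR array, tniQ-cas8-cas7-cas6 and tnsA-tnsB-tnsC. After plating with 0.1 mM IPTG at 37°C for 18 h, input plasmids and genomic integration junctions were PCR-amplified and Illumina-sequenced across two biological output replicates, with four reference barcodes. Relative integration efficiency is the normalised, log-transformed output/input barcode fold change.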

[2] = variants of: B1; experiment: relative integration efficiency (T-RL orientation) vs wild-type transposon end (log2 (normalized fold change)); transposon end mutated: left end; higher = more efficient transposition; settings: with VchCAST RNA-guided transposition machinery (E. coli BL21(DE3) host, lacZ target)
How it was run: as §1

| Variant | relative integration efficiency (log2) [1] | relative integration efficiency (log2) [2] |
| --- | --- | --- |
| CG A91G | 0.0207 ± 0.21 | -0.155 ± 0.14 |
| CG T79A G80C A81T T82A | -2.46 ± 2 | -1.87 ± 0.95 |
| CG T56G T57G A58C A59C | -2.31 ± 0.94 | -1.82 ± 0.62 |
| CC T104A | -0.472 ± 0.64 | -0.478 ± 0.0072 |
| CG T39C | 0.161 ± 0.47 | 0.0645 ± 0.011 |
| CG T39A | 0.147 ± 0.58 | 0.0624 ± 0.071 |
| CG A96T | -0.52 ± 0.14 | -0.314 ± 0.13 |
| CG A93G | -0.13 ± 0.37 | -0.207 ± 0.083 |
| TA A16C G24T T32G A33C A70C T76A T84A C87A A96C T110A T113A | -0.499 ± 1.2 | -0.0812 ± 0.47 |
| CG T38G T39G A40C T41G | 0.212 ± 0.16 | -0.193 ± 0.16 |
| CG A65G | 0.108 ± 0.82 | 0.247 ± 0.21 |
| CG T45C T48C G51T C52A C55G T57G A59T C60A C61T A62T C63T A66C A67T | -0.402 ± 1 | -5.71 ± 1.3 |
| CG A95T A96T C97G C98G | -1.79 ± 0.29 | -1.94 ± 0.81 |
| CG C94T | -0.715 ± 0.59 | -0.669 ± 0.41 |
| CG A50T | -0.977 ± 0.48 | -0.161 ± 0.19 |
| CG A34T A36G A37T T38G T39A A40G T41C T42G T43G T48C C49A | -2.77 ± 0.75 | -2.86 ± 0.81 |
| CG T30A T84A T110A | -0.322 ± 0.51 | -0.403 ± 0.24 |
| CG T74A | -0.12 ± 0.44 | -0.331 ± 0.2 |
| CG T57C | -0.422 ± 0.61 | -0.546 ± 0.31 |
| CG T57A | -0.137 ± 0.84 | 0.139 ± 0.15 |

| Variant | relative integration efficiency (log2) [1] | relative integration efficiency (log2) [2] |
| --- | --- | --- |
| TA A16C G24T T32G A33C T76A A77G C87T T104G T113A | -0.746 ± 0.94 | -1.52 ± 0.61 |
| TG | 0.322 ± 0.57 | 0.126 ± 0.046 |
| CG C63A | 0.438 ± 0.02 | 0.237 ± 0.012 |
| CG T32A A77C T86G | -0.351 ± 0.47 | -0.197 ± 0.12 |
| TA A16C G24T T30A A70C T76A T84A C87A T104G T113A | 0.223 ± 0.78 | -0.109 ± 0.46 |
| AG T31G T111G | -0.732 ± 0.38 | -0.99 ± 0.44 |
| CG T38C | 0.236 ± 0.068 | -0.0081 ± 0.1 |
| CG A109T T110A T111A T112A | -1.2 ± 0.55 | -1.22 ± 0.46 |
| CG G10T | -1.38 ± 0.3 | -0.454 ± 0.26 |
| CG A22C | -1.26 ± 0.71 | -1.07 ± 0.48 |
| TG A16C G24T T30A T76A T78A T84A C87A | 0.0694 ± 0.32 | 0.372 ± 0.36 |
| TA A22T G24T T31C A33C A70C T76A T86G T104G T113A | -0.49 ± 0.73 | -0.861 ± 0.53 |
| CG T35G A36C A37C T38G | 0.209 ± 0.74 | 0.203 ± 0.092 |
| CA A22T G24T T31C A33C T104A T110A T113A | -0.859 ± 0.31 | -0.686 ± 0.34 |
| CG G106T | -1.19 ± 0.64 | -0.797 ± 0.42 |
| TA A16C G24T T30A T76A A77G C87T A96C T110A T113A | 0.1 ± 1.2 | -0.0467 ± 0.48 |
| TA G24A T30A T76A T78G C87A A102T T111C T113C | -0.298 ± 0.65 | 0.243 ± 0.089 |
| TG A16C G24T T32G A33C A70C T76A T84A C87A | -0.64 ± 0.74 | -0.378 ± 0.44 |
| CG A46C A47C T48G C49A | -2.09 ± 0.25 | -1.44 ± 0.53 |
| CG T74G A75C | -2.15 ± 0.86 | -2.21 ± 0.94 |

| Variant | relative integration efficiency (log2) [1] | relative integration efficiency (log2) [2] |
| --- | --- | --- |
| CG C94G A95T A96T C97G | -1.95 ± 1.2 | -0.731 ± 1 |
| CG A36G A65G A66C | -0.205 ± 0.26 | -0.491 ± 0.18 |
| CG A102C | -1.3 ± 0.53 | -1.12 ± 0.46 |
| TA A23G G24T A33T T76A A77G C87T A96C T110A T113A | -0.603 ± 0.67 | -0.516 ± 0.48 |
| CG C17T | -0.0678 ± 0.41 | -0.0235 ± 0.16 |
| CG T56A T57A | -0.409 ± 0.79 | -0.165 ± 0.21 |
| CG A92G | -0.495 ± 0.53 | -0.563 ± 0.18 |
| CG A92T | 0.606 ± 0.37 | -0.0452 ± 0.064 |
| CG A92C | -0.321 ± 0.19 | -0.313 ± 0.19 |
| TG A23G G24T A33T T76A A77G C87T | 0.312 ± 0.44 | -0.26 ± 0.39 |
| TA A16C G24T T30A T76A T78A T84A C87A A96C T112G T113C | -0.55 ± 0.9 | -0.0685 ± 0.46 |
| CG C17G C71G C97G | -1.57 ± 1 | -1.28 ± 0.76 |
| TA A16C G24T T32G A33C T76A T78A T84A C87A A96C T110A T113A | -0.572 ± 0.61 | -0.189 ± 0.31 |
| CG C55A | -0.0412 ± 0.7 | 0.0708 ± 0.088 |
| CG A34C A36G T38C A40G T42C A62G A65G A66C | -0.589 ± 0.68 | -0.685 ± 0.25 |
| CG G24C | -0.15 ± 0.17 | -0.164 ± 0.021 |
| CG G24A | 0.726 ± 0.12 | 0.3 ± 0.075 |
| CG C97G C98G | -1.23 ± 0.91 | -1.07 ± 0.5 |
